In publication PMC10936776, “Structural and functional characterization of AfsR, an SARP family transcriptional activator of antibiotic biosynthesis in Streptomyces” (PLOS Biology, 2024):
Numbering of substitutions follows the chain as printed. Names and notes keep the numbering of the source.

B1: Streptomyces coelicolor RNA polymerase α subunit (natural protein, S. coelicolor)
chain: MLIAQRPSLTEEVVDEFRSRFVIEPLEPGFGYTLGNSLRRTLLSSIPGAAVTSIRIDGVLHEFTTVPGVKEDVTDLILNIKQLVVSSEHDEPVVMYLRKQGPGLVTAADIAPPAGVEVHNPDLVLATLNGKGKLEMELTVERGRGYVSAVQNKQVGQEIGRIPVDSIYSPVLKVTYKVEATRVEQRTDFDKLIVDVETKQAMRPRDAMASAGKTLVELFGLARELNIDAEGIDMGPSPTDAALAADLALPIEELELTVRSYNCLKREGIHSVGELVARSEADLLDIRNFGAKSIDEVKAKLAGMGLALKDSPPGFDPTAAADAFGADDDADAGFVETEQY
notes: RNA polymerase subunit alpha, S. coelicolor; Stood in the assay as a subunit of the RNAP core in the holoenzyme; density for one αCTD is seen; also called αCTD (C-terminal domain of the α subunit); source: S. coelicolor RNAP purified as described previously [37]
B2: Streptomyces coelicolor RNA polymerase sigma factor σ^HrdB (natural protein, S. coelicolor)
chain: MSASTSRTLPPEIAESVSVMALIERGKAEGQIAGDDVRRAFEADQIPATQWKNVLRSLNQILEEEGVTLMVSAAEPKRTRKSVAAKSPAKRTATKAVAAKPVTSRKATAPAAPAAPATEPAAVEEEAPAKKAAAKKTTAKKATAKKTTAKKAAAKKTTAKKEDGELLEDEATEEPKAATEEPEGTENAGFVLSDEDEDDAPAQQVAAAGATADPVKDYLKQIGKVPLLNAEQEVELAKRIEAGLFAEDKLANSDKLAPKLKRELEIIAEDGRRAKNHLLEANLRLVVSLAKRYTGRGMLFLDLIQEGNLGLIRAVEKFDYTKGYKFSTYATWWIRQAITRAMADQARTIRIPVHMVEVINKLARVQRQMLQDLGREPTPEELAKELDMTPEKVIEVQKYGREPISLHTPLGEDGDSEFGDLIEDSEAVVPADAVSFTLLQEQLHSVLDTLSEREAGVVSMRFGLTDGQPKTLDEIGKVYGVTRERIRQIESKTMSKLRHPSRSQVLRDYLD
notes: principal sigma factor HrdB, S. coelicolor; region 1.1 disordered in the map; Stood in the assay as part of the RNAP σ^HrdB-holoenzyme; also called σ subunit; σ R4 (region 4); source: purified as described previously [37]
B3: AfsR (dephosphorylated AfsR) (Streptomyces coelicolor A3(2)) (protein)
chain: MDGGPRVPEQRRPGFPAEEEESGALRFGVLGPVRAWRDGETLATGSPQQRALLAALLLREGRTATAGELIDALWGEEPPSQALAAVRTYASRLRKVLDPGVLVSESGGYAVRGLAEGALDLARAQDLASAAEKARSAGDLCHARDLLRRALDLWDGEVLAGVPGPYAQTQRVRLGEWRLQLLETRLDMDLDQGCHAEAVSELTALTAAHPLRERLRELLMLALYRSGRQAEALAVYADTRRLLADELGVDPRPGLQELQQRILQADPALAELSAATAETATATLRPAQLPATVSDFTGRAAFVRELSDVLSAASGESASGRVMAVSALAGIGGVGKTTLAVHVAHRARAAFPDGQLYVDLQGAGARPAEPETVLGSFLRALGTADSAIPDSLEERAALYRSVLDGRRVLVLLDNARDAAQVRPLLPGTDGCAALVTARVRMVDLAGAHLVDLDVMAPEEALALFTKIVGEERVASERQAALDVVGACGFLPLAIRIAASRLAARRTWTVSVLAAKLADERRRLDELQAGDQAVEATFELGYGQLEPAQARAFRLLGLADGPDISLAAAAAVLDLPAQDTEDLLESLVDTSLLESAAPGRYRFHDLVRLYARACAERTERDGNAPSERGAALSRLLDFYLATAAGVYAIERPGDRLVDGLEPTEYPGLTFTEGSAALDWLYTEAAPLLACVRQSAGTARLRRAVDLLWAAKDLTESGANSHQYEATARAMCDATGSAADTRAEGRARTVLSDVLLVSGRIEHAEEEARLAMRLAGSAEDSAAVSWVANNRGLVCLHQRRYAEGKGLFHQAIAGFRATDNRAGEASALSNLSRAQLGMGNVAEAVDIARQGLAVYAELGRTMRLANGHFALGVALTRAGRHEEALGEFAEALDLFGDHRQRLWEGATNFRLAEVHLAAGRPSSAAQHAEQALALGCIGGDRMRGNVLALLGRALSALGQADRARACWREALSLYEQHDAQEVGEVRALLARSVAR
notes: full-length, 993 residues, pET28a (His-tagged), E. coli BL21(DE3), Ni-NTA and SEC; wild type treated with lambda phosphatase (E. coli protein carries pT337); mainly monomer
B4: phosphorylated AfsR (phos-AfsR) (Streptomyces coelicolor A3(2)) (protein)
chain: B3 chain
notes: full-length, 993 residues, pET28a (His-tagged), E. coli BL21(DE3); dephosphorylated, then phosphorylated in vitro by AfsKΔC (pS22, pT337, pS391, pT506, pS953 by MS), SEC
B5: AfsR 4E mutant (S391E/T337E/T506E/S953E) (natural protein, S. coelicolor, UniProt P25941 1-993, looked up)
chain: B3 chain with T337E, S391E, T506E, S953E
notes: AfsR, S. coelicolor, with glutamate substitutions at all 4 phosphorylation sites of NOD and TPR; Likely made like wild-type AfsR (pET28a, E. coli BL21(DE3))
B6: AfsR T337A mutant (natural protein, S. coelicolor, UniProt P25941 1-993, looked up)
chain: B3 chain with T337A
notes: AfsR, S. coelicolor, full-length protein with T337A; Preincubated with afsS promoter DNA and 1 mM ATPγS for AfsR-TIC; Vector and host of the mutant are surmised from the wild type

Experiments:
[1] = target: T1, AfsR (dephosphorylated AfsR) (Streptomyces coelicolor, UniProt P25941); assay: in vitro MangoIII transcription assay after preincubation; format: biochemical; conditions: 500 nM dephosphorylated AfsR, 1 mM GTP preincubation 10 min 30 °C, RNAP-σHrdB, RbpA, CarD; activator
T1 construct: full-length, 993 residues, pET28a (His-tagged), E. coli BL21(DE3), Ni-NTA and SEC; wild type treated with lambda phosphatase (E. coli protein carries pT337); mainly monomer

[2] = target: B6; assay: cryo-EM structure; AfsR_(T337A)-TIC: 32 uM AfsR_(T337A) preincubated with 5 uM afsS promoter DNA and 1 mM ATPγS, mixed with RNAP core, σ^HrdB, CarD, RbpA; assembling buffer; Superose 6; nominal resolution 3.63 Å, SARP region 5.10 Å; conditions: both partners purified
[3] = substrate: Nc1ncnc2c1ncn2[C@@H]1O[C@H](COP(=O)(O)OP(=O)(O)OP(=O)(O)O)[C@@H](O)[C@H]1O; assay: Malachite green phosphate ATPase assay; format: biochemical, Streptomyces coelicolor; conditions: 5 μM protein, 20 mM Tris-HCl pH 7.5, 150 mM NaCl, 5 mM MgCl2, 30 min
[4] = target: the molecule itself; assay: SEC; Superdex 200; 20 mM Tris pH 8.0, 150 mM NaCl, 5% glycerol; protein alone, without DNA
[5] = target: T2, Streptomyces coelicolor RNA polymerase β subunit (S. coelicolor, UniProt Q9L0L0 1-1161); assay: cryo-EM structure; AfsR_(T337A)-TIC: 32 uM AfsR_(T337A) preincubated with 5 uM afsS promoter DNA and 1 mM ATPγS, mixed with RNAP core, σ^HrdB, CarD, RbpA; assembling buffer; Superose 6; nominal resolution 3.63 Å, SARP region 5.10 Å; conditions: both partners purified
T2 construct: RNA polymerase subunit beta, S. coelicolor; Stood in the assay as a subunit of the RNAP core in the holoenzyme; also called RNAP β; β flap; source: S. coelicolor RNAP purified as described previously [37]

[6] = target: the molecule itself; assay: as above
[7] = target: T3, Streptomyces coelicolor RNA polymerase β′ subunit (S. coelicolor, UniProt Q8CJT1 1-1299); assay: as above; conditions: both partners purified
T3 construct: RNA polymerase subunit beta', S. coelicolor; Stood in the assay as a subunit of the RNAP core in the holoenzyme; also called RNAP β′; β′ ZBD; source: S. coelicolor RNAP purified as described previously [37]

[8] = phosphomimetic 4E mutant, phosphatase treatment not stated

## Nc1nc2c(ncn2[C@@H]2O[C@H](COP(=O)(O)OP(=O)(O)OP(=O)(O)O)[C@@H](O)[C@H]2O)c(=O)[nH]1 [GTP]
[1]
  transcription activation: preincubating dephosphorylated AfsR with ATP or GTP significantly enhances its transcription activation

## B1
[2]
  binding result: binds

## B2
[2]
  binding result: binds

## B3
[3]; dephosphorylated
  Km: 1160 ± 231 µM
  kcat: 0.0453 ± 0.00356 s⁻¹

## B4
[3]; phosphorylated by AfsKΔC
  Km: 767 ± 163 µM
  kcat: 0.070 ± 0.00515 s⁻¹

## B5
[4]
  binding result: binds
[3]; [8]
  Km: 995 ± 152 µM
  kcat: 0.147 ± 0.00841 s⁻¹

## B6
[5]
  binding result: binds
[6]
  binding result: binds
[7]
  binding result: binds
